{"source": "patent US6468985B1", "about": "“Retinoblastoma protein-interacting zinc finger proteins” (The Burnham Institute, priority 1994, dated 2002)", "molecules": {"B1": {"name": "GST-RIZ (245-573): glutathionine S-transferase fused to RIZ fragment a.a. 245-573 containing zinc fingers 1-3 (protein)", "chain": "CEPQPEVDGKQEVTDCEVNDVEEEELEEEEELEEEEEEELGEDGVEEADMPNESSAKEPEIRCEEKPEDLLEEPQSMSNEAREDSPDVTPPPHTPRAREEANGDVLETFMFPCQHCERKFATKQGLERHMHIHISTINHAFKCKYCGKRFGTQINRRRHERRHETGLKRRPSMTLQSSEDPDDGKGENVTSKDESSPPQLGQDCLILNSEKTSQEVLNSSFVEENGEVKELHPCKYCKKVFGTHTNMRRHQRRVHERHLIPKGVRRKGGLLEEPQPPAEQAPPSQNVYVPSTEPEEEGETDDVYIMDISSNISENLNYYIDGKIQTNSS", "modifications": "left off: a dimerising Fc or GST"}}, "key": {"rat ovary genomic DNA": {"tested_on": "rat ovary genomic DNA", "assay": "filter-based DNA-binding assay", "excerpt": "To evaluate whether the zinc finger domains of RIZ can bind to DNA, the RIZ finger motifs 1 to 3 from amino acid position 245-573 or finger 4 to 6 from amino acid position 1114-1260 were expressed as GST fusion proteins, GSTZ13 and GSTZ46, respectively. The GST-RIZ fragments were purified by glutathionine agarose chromatography (Guan and Dixon, Anal. Biochem. 192:262-267 (1991), which is incorporated herein by reference) and evaluated for binding in a filter-based DNA-binding assay (Sukegawa and Blobel, Cell 72:29-38 (1993), which is incorporated herein by reference). To obtain GSTZ46, a fragment encoding RIZ (1114-1260) was made by PCR using primers 5′-GTGGTCCAAG AAACATTC-3′ (SEQ ID NO: 17) and 5′-TCGTGTAAAG CTCTTCAG-3′ (SEQ ID NO: 18) and pCMVRIZ as template. The PCR fragment was cloned into pBKS+, then into pGEX-KG (Guan and Dixon, supra, 1991).\nThe filter-based DNA binding assay was performed by electrophoresing 0.5 μg of purified GST or GST-RIZ fusion proteins by SDS-PAGE and transferring the proteins to nitrocellulose. The proteins were renatured by incubating the nitrocellulose for 3 hr in binding buffer (50 mM Tris-HCl, pH 8, 100 mM KCl, 0.1% Triton X-100™, 10% glycerol, and 0.1 mM ZnCl2). ^32P-labeled, randomly sheared rat ovary genomic DNA was added to the buffer and the nitrocellulose was incubated for an additional 3 hr. […]"}, "RIZ": {"biological_target": "T1, RIZ (Rattus norvegicus, UniProt Q63755)", "T1 construct": "made in house; host or cells: in vitro transcription/translation (rabbit reticulocyte lysate)", "T1 sequence (Q63755 245-883)": "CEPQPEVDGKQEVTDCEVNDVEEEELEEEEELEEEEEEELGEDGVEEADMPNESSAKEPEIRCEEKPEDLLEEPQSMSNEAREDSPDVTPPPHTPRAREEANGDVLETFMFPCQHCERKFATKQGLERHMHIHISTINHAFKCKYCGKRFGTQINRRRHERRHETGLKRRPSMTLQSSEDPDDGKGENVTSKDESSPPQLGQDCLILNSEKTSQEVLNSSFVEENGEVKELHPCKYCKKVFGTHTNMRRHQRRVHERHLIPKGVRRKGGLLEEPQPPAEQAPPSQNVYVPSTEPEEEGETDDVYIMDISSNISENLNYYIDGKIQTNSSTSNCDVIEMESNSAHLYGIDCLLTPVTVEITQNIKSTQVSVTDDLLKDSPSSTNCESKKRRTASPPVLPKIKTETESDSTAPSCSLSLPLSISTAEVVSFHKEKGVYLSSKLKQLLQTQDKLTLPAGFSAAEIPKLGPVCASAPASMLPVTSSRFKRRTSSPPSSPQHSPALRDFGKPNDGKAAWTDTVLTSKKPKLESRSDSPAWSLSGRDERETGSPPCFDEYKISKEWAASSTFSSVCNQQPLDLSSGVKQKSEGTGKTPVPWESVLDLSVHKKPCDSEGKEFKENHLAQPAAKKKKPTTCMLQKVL", "assay": "binding of anti-RIZ antiserum / anti-ce1 antibody to RIZ and RIZ truncation mutants", "details": "addition of the immunogen", "description": "Anti-RIZ antibodies purified from the E1A affinity column were tested for binding to RIZ and E1A. […] The E1A-affinity purified RIZ antibodies were designated “anti-ce1” for cross reacting E1A antigen.\nAnti-ce1 antibodies were tested for binding to various deletion mutants of RIZ and E1A 12S in order to map the location of the ce1 epitope on each molecule.\nTo evaluate this possibility, an 11 amino acid peptide encompassing residues 310-320 in RIZ (ce1 peptide) [sequence] (SEQ ID NO: 7) and an overlapping 11 amino acid control peptide encompassing residues 304-314 containing the cr2 core motif of RIZ, peptide [sequence] (SEQ ID NO: 6), were synthesized by solid phase peptide synthesis and tested for their ability to block binding between anti-ce1 antibody and RIZ or E1A."}}, "data": [{"molecule": "B1", "values": [{"measurement": "binding to 32P-labeled rat DNA", "setting": "rat ovary genomic DNA; 0.5 μg protein, binding buffer with 0.1 mM ZnCl2", "value": "bound"}, {"measurement": "zinc dependence of DNA binding", "setting": "rat ovary genomic DNA; with ZnCl2 versus 10 mM EDTA, 2 mM DTT and no ZnCl2", "value": "Zn^++ ion dependent manner"}, {"measurement": "inhibition of anti-RIZ antiserum binding to RIZ (245-883)", "setting": "RIZ", "value": "inhibited"}]}]}
